Experimental data from paper PMC7968844.

Tests used:
[1] = FLAG pulldown, MS peptide reads; settings: glycan lost; control: MCF7-WT cells
[2] = CHX chase, Western blot, endogenous ERα; settings: glycan lost; control: MCF7-WT cells, empty vector
[3] = Western blot of ERα after GREB1 reconstitution; settings: glycan gained; control: GREB1-KO cells + Vec
[4] = CHX chase, Western blot, MCF7-WT cells; settings: glycan lost; control: ERα-WT in MCF7-WT cells
[5] = CHX chase, Western blot, GREB1-KO cells; settings: glycan lost; control: ERα-WT in GREB1-KO cells

B1: ERα (estrogen receptor α): GREB1-KO (protein)
parent chain: MTMTLHTKASGMALLHQIQGNELEPLNRPQLKIPLERPLGEVYLDSSKPAVYNYPEGAAYEFNAAAAANAQVYGQTGLPYGPGSEAAAFGSNGLGGFPPLNSVSPSPLMLLHPPPQLSPFLQPHGQQVPYYLENEPSGYTVREAGPPAFYRPNSDNRRQGGRERLASTNDKGSMAMESAKETRYCAVCNDYASGYHYGVWSCEGCKAFFKRSIQGHNDYMCPATNQCTIDKNRRKSCQACRLRKCYEVGMMKGGIRKDRRGGRMLKHKRQRDDGEGRGEVGSAGDMRAANLWPSPLMIKRSKKNSLALSLTADQMVSALLDAEPPILYSEYDPTRPFSEASMMGLLTNLADRELVHMINWAKRVPGFVDLTLHDQVHLLECAWLEILMIGLVWRSMEHPGKLLFAPNLLLDRNQGKCVEGMVEIFDMLLATSSRFRMMNLQGEEFVCLKSIILLNSGVYTFLSSTLKSLEEKDHIHRVLDKITDTLIHLMAKAGLTLQQQHQRLAQLLLILSHIRHMSNKGMEHLYSMKCKNVVPLYDLLLEMLDAHRLHAPTSRGGASVEETDQSHLATAGSTSSHSLQKYYITGEAEGFPATV
other: ubiquitin associated with ERα [1]: increases
degradation_or_half_life [2]: decreases

B2: ERα (estrogen receptor α): GT-WT (protein)
parent chain: B1 parent chain
expression_or_secretion [3]: increases

B3: ERα (estrogen receptor α): ERα-2M (protein)
parent chain: B1 parent chain
degradation_or_half_life [4]: decreases
degradation_or_half_life [5]: no change
